Tested on: K4 kissing-loop RNA reporter
Experiment: apparent KD of K4 kissing-loop reporter; higher = weaker reporter binding
Conditions: Eterna round: R107
Description: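 RNA-MaP round R107: designed RNA switches with theophylline, tryptophan, arginine or FMN aptamers are transcribed on-chip within common flanks. They are titrated with a labelled K4 kissing-loop RNA reporter in RNA-MaP buffer (100 mM Tris pH 7.5, 80 mM KCl, 4 mM MgCl2), without ligand or with the indicated ligand. Median apparent KD per design.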

[1] = input ligand: theophylline 20 uM
[2] = input ligand: tryptophan 2.4 mM
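Further: bound reporter read as fluorescence of individual clusters on recovered sequencing chips by microscopy, with normalized cluster intensities fitted with a binding model.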

| Sequence | apparent KD of K4 kissing-loop reporter (input ligand: FMN 200 uM) [nM] | apparent KD of K4 kissing-loop reporter (input ligand: arginine 13.2 mM) [nM] | apparent KD of K4 kissing-loop reporter (input ligand: none) [nM] | apparent KD of K4 kissing-loop reporter [1] [nM] | apparent KD of K4 kissing-loop reporter [2] [nM] |
| --- | --- | --- | --- | --- | --- |
| UGUGCCAAAUGUGAUACCAGCAUCCUGCAGUGAUGUUGCAUACGAGUGAUGUUCGUCCGAUGCCCUUGGCAGCGCAGUAGUUUGA [Same State Theophylline B GF 26] | 264 | 263 | 307 | 326 | 239 |
| AAGUGAUGUUGUAGUGAUGUUGUGAUGUUGCAGGAUAUAUAGUGAUGUAGAAGGGUAUGUACUUAUUUUUUUUUUGAGUUAUGUU [wzzwzrmullin] | 79.5 | 33.4 | 58 | 46.2 | 63.3 |
| UGACUGGACUGAAGGAGCGCUAAACUCCUAGUGAUGUUAGGGAAACGAGACAAAGUCUCGAGGCAGGUAGGUCGCAGUCUAGUCU [FiskerMod 1 - Jieux - Same State - Arginine B] | 254 | 199 | 261 | 265 | 244 |
| ACAGGAUCGAAGAUCCUGAGCAGUCAAAACCGAGGACCGGUACGGCCGCCACUCGGAGUGAUGUUCCGAAGACUGCAAAAUAAAA [#SwitchBubble 3] | 1090 | 760 | 1010 | 1010 | 692 |
| AAAUCGUUCAGAAGGAGCGUGAAUUAUUCUUAAUUAUAUUAUACGAGUGAUGUUCGUGUUUCACAGGUAGGUCGCUGAUCGAUAA [JR_SSArginiB_Sub005] | 94.4 | 126 | 95.6 | 148 | 84.1 |
| GGACGCCGGUCGGCCGCCACUCACAGCAGCCAGUGAUGUUGGAUUGUAGCGGAGUGAUGUUCCGAGAGGACCGGGACUGCAGUCU [Same State Tryptophan B GF 11] | 161 | 135 | 153 | 114 | 137 |
| AGACUACCACACUGUCAAUAGACAGUGAACUAGGAUAUGCUGAUAAGCAGAAGGAGUGAUGUUCCCAGGUAGUCAAUAAAAUAAU [FmnAX 13 C66] | 170 | 185 | 231 | 331 | 223 |
| AGACUUCACCGAAGGAGCGACGUGGUCUAGUGAUGUUAGACACGAGAGAAAUCUCGUAUACGUCAGGUAGGUCGCGGUGAAGUCA [Omei KL Arginine B SS C v9] | 147 | 119 | 146 | 117 | 133 |
| GGAAUAACCUGGGAUACCAGUCGGAGGACUAGGGAUCGGAGUGAUGUUCUGGGAUGUUUCGGCCCUUGGCAGCUCUGGUUUUCCG [#2 Exclusion - Theophylline B Attempt #1 (HarryS)] | 569 | 286 | 551 | 614 | 443 |
| AAUUUAUUAUCUGAUACCAGACUUUUUCUUGUAUAUAAGUCAAGUGAUGUUUGACUUUUAGUCCCUUGGCAGCAGUAUUUUUUAA [JR_Nu_SSTheophyB_Sub027] | 165 | 149 | 168 | 123 | 155 |
| GGGAGUAGUGCGGCCGCCACUGUGAAAGAAGAAGAAUAUAGUGAUGUUAUAUAGGAAAGGAAGAAUAGGACCGGGCAUUAGAUUU [SSTRyptB.K] | 213 | 226 | 260 | 235 | 183 |
| GGAUAGGAUAGAGGAUAUGGGUUAGGCAAGAAUAACUUGUCUAGUAAAUCCAUGAGGAGUGAUGUUCCAGAAGGCUGUCCUAUCG [MatMod 4 - Jieux - Exclusion - FMN B] | 429 | 125 | 117 | 127 | 98.3 |
| GCUACCUAGGCAGGAUAUAGACAUUGAGUGAUGUUCGAUGAUUAUCCAUAUUCCCGUCACAUAUGACUAGAAGGGCCUAGGUAGC | 660 | 184 | 221 | 228 | 211 |
| AGAGAUAUAUGAGGAUAUGAGAUAGUUAAUGAGUGAGUUAUAGUGUAGUUUGGUUAGUGAUGUUAUUUAGAAGGCGUGAGUGAUG [reefmullin] | 140 | 76.7 | 131 | 107 | 83.3 |
| UAGGGCAUCGCAGGAUAUCCUGCUUAACGUUGGAUUCCAGUGAUGUUGGAAAGUCGGCCUAGGGUAGGAGAAGGGCGAACUUGAA [Maxean] | 172 | 157 | 194 | 195 | 98.1 |

Source: the supplement of paper PMC9170038
